This is an account of results in the Immune Epitope Database (IEDB).

Assay [1] deals with HLA-A*02:01. Nature of the assay: IEDB peptide-MHC binding, purified MHC/direct/fluorescence; filed as Kd, often an IC50 or EC50 that approximates it; ≥ and ≤ were set here for values at or beyond the usual limits of such assays.
The target in assay [2] is HLA-A*69:01. The description is as above.
The target in assay [3] is HLA-A*11:01. The description is as above. The settings on record: source organism: Francisella tularensis subsp. holarctica LVS.
For assay [4], the target named is HLA-A*03:01. The description is as above.
For assay [5], the target named is HLA-A*02:01. Nature of the assay: IEDB peptide-MHC binding, purified MHC/competitive/fluorescence; ≥ and ≤ were set here for values at or beyond the usual limits of such assays.
Assay [6] has as its target HLA-B*40:01. The assay can be described thus: IEDB peptide-MHC binding, purified MHC/direct/fluorescence; filed as Kd, often an IC50 or EC50 that approximates it; ≥ and ≤ were set here for values at or beyond the usual limits of such assays. The settings on record: source organism: Homo sapiens.
Assay [7] has as its target HLA-B*15:01. The description is as above. The settings on record: source organism: SARS-CoV1.
Assay [8] has as its target HLA-A*02:03. The assay can be described thus: IEDB peptide-MHC binding, purified MHC/competitive/radioactivity; filed as Kd, often an IC50 or EC50 that approximates it; ≥ and ≤ were set here for values at or beyond the usual limits of such assays.
The target in assay [9] is HLA-A*02:02. The assay is described as above.
Assay [10] concerns the target HLA-A*02:06. The assay is described as above.
In assay [11] the target is HLA-B*58:01. The assay can be described thus: IEDB peptide-MHC binding, purified MHC/direct/fluorescence; filed as Kd, often an IC50 or EC50 that approximates it; ≥ and ≤ were set here for values at or beyond the usual limits of such assays. The note with it: source organism: Mycobacterium tuberculosis str. Haarlem.
Setting [12] is: source organism: Bacillus cytotoxicus.
Where [13] appears, read: source organism: Bacillus anthracis.
Setting [14] is: source organism: Sudan ebolavirus.
[15] abbreviates: source organism: Zaire ebolavirus.
Where [16] appears, read: source organism: Vaccinia virus WR.
Where [17] appears, read: source organism: SARS coronavirus Tor2.
Setting [18] is: source organism: Mammarenavirus brazilense.

A value given as a limit tells only on which side of the number the result lay.

Turning to ALSGFYYVQ, the Kd in assay [1] (setting [12]) was determined as 1400 nM; in assay [2] (setting [12]) it was 2360 nM.
For the sequence AVYSICKFY, the values for the Kd in [3] and in assay [4] (source organism: Francisella tularensis subsp. holarctica LVS) were 708 nM and 297 nM, respectively.
Take DSMFLMTAT: in [5] (source organism: Variola virus), the IC50 came out at 4400 nM.
On to EHAGVISVL, for which the values for the Kd in assay [6] and in assay [2] (source organism: Homo sapiens) were 364 nM and 4640 nM, respectively.
For the sequence EQDGITYYL, the dissociation constant (Kd) is ≥ 20000 nM in assay [1] (setting [13]) and 12.5 nM in assay [2] (setting [13]).
FVYHPDRLK returned a Kd in assay [4] (source organism: Escherichia coli O157:H7) of 46.7 nM.
As to GLITSTVTG, the IC50 in assay [5] (setting [14]) came to 12400 nM.
As for GSTLAGVNV, in assay [5] (setting [15]), the half-maximal inhibitory concentration (IC50) is ≥ 95000 nM.
The same measure, in the same setting: under HGLFPQLSA stands 47900 nM.
With IAGVAGLIT, the IC50 in assay [5] (setting [15]) was ≥ 205000 nM.
Turning to IHDFIDNPL, in assay [5] (setting [14]), the IC50 is ≥ 103000 nM.
Regarding IKHVGLITC, the IC50 in [5] (setting [16]) is ≥ 622000 nM.
For ILGLPTQTV, the Kd in assay [1] (source organism: SARS-CoV1) was found to be 402 nM; in assay [7], 1600 nM.
ILIDTSAWV had a Kd in assay [2] (source organism: Mycobacterium tuberculosis) of 429 nM.
With ILSNKLLYAA, the Kd in assay [8] (setting [16]) is 1110 nM; in assay [9] (setting [16]) it was 8.09 nM; in assay [10] (setting [16]), 150 nM.
For ITAIYVFCI, the Kd in assay [8] (setting [17]) amounted to 89.2 nM; in [9] (setting [17]), 28.7 nM; in [10] (setting [17]) it was 132 nM.
Consider ITPTIEDDKI, for which the equilibrium dissociation constant (Kd) in assay [8] (setting [16]) was determined as 4200 nM; in [9] (setting [16]), 18700 nM; in assay [10] (setting [16]) it was 1500 nM.
For ITVGMLIYSM, in that order: 6110 nM, 47.4 nM and 97.1 nM.
For IVQSVLRDI the same measures were 101 nM, ≥ 77800 nM and 1310 nM.
Take KAKQLCYCPA: the values for the dissociation constant (Kd) in assay [8] (setting [16]), in assay [9] (setting [16]) and in assay [10] (setting [16]) were 188 nM, 308 nM and 339 nM, respectively.
For the sequence KCFGNTALA, the results for the Kd in assay [8] (setting [18]), in assay [9] (setting [18]) and in assay [10] (setting [18]) were 1090 nM, 31 nM and ≥ 77000 nM, respectively.
In the case of KGGTGGWLW, in assay [11], the Kd stood at 43.3 nM.
KIILFQNNDI: the values for the Kd in assay [8] (setting [16]), in assay [9] (setting [16]) and in assay [10] (setting [16]) were 2000 nM, 1610 nM and 2170 nM, respectively.
For KLDDTGKKEL, in that order: 139 nM, 101 nM and 5530 nM.
For KLYGYASLTT, in that order: 0.261 nM, 1.88 nM and 34 nM.
For KTNTKHCPKI, in that order: 10900 nM, ≥ 33800 nM and 234 nM.
In turn, KTQEPPQVA gave a Kd in [1] (source organism: Haemophilus influenzae) of 7070 nM.
In the case of LFSYGTLII, the IC50 in assay [5] (source organism: Variola virus) was ≥ 72600 nM.
LLDDFVEII: the Kd is 523 nM in assay [8] (setting [17]), 136 nM in assay [9] (setting [17]) and 159 nM in assay [10] (setting [17]).
For LLTHGADPNA, the Kd in [8] (setting [16]) came out at 7510 nM; in assay [9] (setting [16]), 9610 nM; in assay [10] (setting [16]) it was 15800 nM.
For LLVQYGAKI, in that order: 358 nM, 206 nM and 1140 nM.
In the case of LMYKGLPWNV, the Kd in assay [8] (setting [17]) was 5.34 nM; in [9] (setting [17]) it was 1.75 nM; in assay [10] (setting [17]), 37.1 nM.
As to MAGVEVRYI, the Kd in [8] (setting [16]) is 201 nM; in assay [9] (setting [16]), 293 nM; in assay [10] (setting [16]), 2050 nM.
In the case of NASKFVYVSV, the Kd in assay [8] (setting [16]) came to 8.57 nM; in assay [9] (setting [16]), 4550 nM; in [10] (setting [16]), 823 nM.
Take NINFNNSSII: the figures for the dissociation constant Kd in [8] (setting [16]), in assay [9] (setting [16]) and in assay [10] (setting [16]) were 13300 nM, 6640 nM and ≥ 30100 nM, respectively.
For NINIEVKLFI the same measures were 2050 nM, 12500 nM and 2320 nM.
Turning to NLILNFLDWI, the Kd turned out to be 283 nM in assay [8] (setting [16]), 1690 nM in assay [9] (setting [16]) and 443 nM in assay [10] (setting [16]).
For NLYKVYNGI the same measures were 61.7 nM, 408 nM and 817 nM.
